From publication doi:10.1101/2025.03.03.641244 (bioRxiv, 2025)

Legend:
Experiment in all cases: MST
[1] = target: Enhanced GFP with C-terminal (GGGGS)3GG linker and RQLL
[2] = target: Sortilin extracellular domain (ECD) (M1-S756) C-terminally fused to 6His (UniProt Q99523)
[3] = target: T1, Sortilin extracellular domain (ECD) (M1-S756) C-terminally fused to 6His (UniProt Q99523 78-756)
T1 sequence: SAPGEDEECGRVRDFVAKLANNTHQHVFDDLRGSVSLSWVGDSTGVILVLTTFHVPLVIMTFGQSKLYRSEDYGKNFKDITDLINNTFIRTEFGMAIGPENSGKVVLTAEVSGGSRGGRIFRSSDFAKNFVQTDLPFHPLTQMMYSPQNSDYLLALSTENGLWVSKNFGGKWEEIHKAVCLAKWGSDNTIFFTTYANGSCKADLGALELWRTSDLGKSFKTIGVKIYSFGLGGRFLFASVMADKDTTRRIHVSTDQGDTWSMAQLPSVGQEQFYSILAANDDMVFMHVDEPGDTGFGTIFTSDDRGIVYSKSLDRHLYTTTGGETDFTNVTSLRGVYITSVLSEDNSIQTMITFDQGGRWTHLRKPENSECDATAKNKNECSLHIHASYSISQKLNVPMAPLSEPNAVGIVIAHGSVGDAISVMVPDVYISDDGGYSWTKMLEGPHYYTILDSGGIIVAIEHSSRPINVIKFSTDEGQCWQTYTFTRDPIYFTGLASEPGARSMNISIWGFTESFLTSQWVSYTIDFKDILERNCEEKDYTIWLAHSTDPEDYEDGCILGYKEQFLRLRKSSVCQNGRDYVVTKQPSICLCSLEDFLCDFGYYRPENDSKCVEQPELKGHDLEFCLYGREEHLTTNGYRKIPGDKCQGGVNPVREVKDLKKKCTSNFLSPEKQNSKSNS

Molecule “Sortilin extracellular domain (ECD) (M1-S756) C-terminally fused to 6His (from UniProt Q99523 78-756) (domain or fragment)” has a Kd [1] of 0.074 µM.

“TNFa (V76-L233) with C-terminal (GGGGS)3GG linker and RQLL” was tested, and the Kd [2] was 0.0865 µM.

In the case of “TNFa (V76-L233) without RQLL (natural protein)”, the Kd [2] is reported as over 200 µM.

B1: progranulin N-terminally tagged with the HiBiT peptide (ligand)
chain: TRCPDGQFCPVACCLDPGGASYSCCRPLLDKWPTTLSRHLGGPCQVDAHCSAGHSCIFTVSGTSSCCPFPEAVACGDGHHCCPRGFHCSADGRSCFQRSGNNSVGAIQCPDSQFECPDFSTCCVMVDGSWGCCPMPQASCCEDRVHCCPHGAFCDLVHTRCITPTGTHPLAKKLPAQRTNRAVALSSSVMCPDARSRCPDGSTCCELPSGKYGCCPMPNATCCSDHLHCCPQDTVCDLIQSKCLSKENATTDLLTKLPAHTVGDVKCDMEVSCPDGYTCCRLQSGAWGCCPFTQAVCCEDHIHCCPAGFTCDTQKGTCEQGPHQVPWMEKAPAHLSLPDPQALKRDVPCDNVSSCPSSDTCCQLTSGEWGCCPIPEAVCCSDHQHCCPQGYTCVAEGQCQRGSEIVAGLEKMPARRASLSHPRDIGCDQHTSCPVGQTCCPSLGGSWACCQLPHAVCCEDRQHCCPAGYTCNVKARSCEKEVVSAQPATFLARSPHVGVKDVECGEGHFCHDNQTCCRDNRQGWACCPYRQGVCCADRRHCCPAGFRCAARGTKCLRREAPRWDAPLRDPALRQLL
B1 showed a Kd [3] of 0.0035 ± 0.0016 µM.
